We go through 2 substances from US20250277026A1.

The target in test [1] is human Claudin-3 (human) (UniProt O15551). Kind of test: FACS, Claudin-3-CHO-K1 cells (data not shown in the figures).
Test [2] has as its target human Claudin-4 (human) (UniProt O14493). Kind of test: FACS, Claudin-4-CHO-K1 cells. For orientation: In flow cytometry, cells or beads pass a laser one at a time.
Test [3] has the same target. Briefly: FACS, Claudin-4-CHO-K1 cells, serial dilution of the antibody, MFI.
Test [4] has the same target. Briefly: FACS, MCF7 cells (endogenous CLDN3 and CLDN4).
Test [5] deals with human Claudin-3 (human) (UniProt O15551). Kind of test: FACS, Claudin-3-CHO-K1 cells, serial dilution of the antibody, MFI.
For test [6] the target is unchanged. Kind of test: FACS, MCF7 cells (endogenous CLDN3 and CLDN4).
Test [7] shares this target. Kind of test: FACS, Claudin-3-CHO-K1 cells, 5 µg/ml.

human Claudin-4 (human), sequence (O14493 whole entry): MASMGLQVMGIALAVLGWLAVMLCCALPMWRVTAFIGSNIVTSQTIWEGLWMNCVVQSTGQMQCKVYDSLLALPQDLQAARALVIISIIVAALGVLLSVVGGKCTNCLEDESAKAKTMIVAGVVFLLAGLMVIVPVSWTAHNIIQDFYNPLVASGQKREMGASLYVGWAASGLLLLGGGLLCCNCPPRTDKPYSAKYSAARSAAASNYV
human Claudin-3 (human), sequence (O15551 whole entry): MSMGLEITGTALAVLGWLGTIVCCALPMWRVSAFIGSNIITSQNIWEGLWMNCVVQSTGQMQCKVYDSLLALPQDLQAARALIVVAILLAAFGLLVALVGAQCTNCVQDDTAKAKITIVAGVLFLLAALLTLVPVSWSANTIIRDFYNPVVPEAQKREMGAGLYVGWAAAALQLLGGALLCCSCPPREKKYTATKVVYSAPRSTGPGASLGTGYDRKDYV

A word on the EC50 (read off the curve): it is the concentration needed to bring the measured effect to its halfway point. A high value points to lower potency in that assay. For the substance anti-Claudin-4 antibody MAB4219 (R&D), the fold MFI over isotype control in test [1] worked out at 9.7 fold; in test [2] it was 33 fold; in test [4] it was 15 fold. In test [3], this substance yielded an EC50 (read off the curve) of 2 nM.

Regarding anti-claudin 3 antibody MAB4620 (R&D), the EC50 (read off the curve) in test [5] turned out to be 0.6 nM. Moreover, the fold MFI over isotype control came to 20 fold in test [6] and 61 fold in test [7].
